The values that follow are results of earlier work, collected in patent publication US20150177237.

As usually defined, the Kd is the constant that tells how readily two partners part at equilibrium.

The data set has as its target thrombin (UniProt P00734+P00734). Conditions: n positions 6-20 are abasic (x); CITED known Kd of thrombin for its aptamer; nanopore event ratios at 10-1000 nM thrombin closely match theory from this Kd; 1 M KCl, 10 mM Tris pH 7.5.

For the sequence “AAAAANNNNNNNNNNNNNNNAAAAAAAAAAGGTTGGTGTGGTTGG [5A15x10A_TBA]”, the Kd is 50 nM.
